Data published in US20170119790A1, “Agents, Uses and Methods” (CYTOGUIDE A/S, priority 2009, published 2017).
“And” between values parts separate entries of the source, which are not always exact repeats. Equal values may be shown once.

Tests used:
[1] = system: TNF production of pro-inflammatory macrophages; assay: Inhibition of LPS induction of TNF production in in vitro matured pro-inflammatory macrophages; type: cell-based, human; settings: compared with free dexamethasone / buffer, FIG. 30-31
Experimental: Monocytes were obtained from MNC after isolation using Dynal Monocyte Negative
Monocytes were resuspended in RMPI 1640 medium (Sigma-Aldrich, Brøndby, Denmark) containing 20% fetal calf serum (FCS) supplemented with 100 ng/ml M-CSF (GenScript Corporation, New Jersey, USA) and penicillin/streptomycin (pen/strep) for 7 days. The first 3 days in Tissue Culture Flasks at 37° C. and 5% CO2. The monocytes were then detached from the flask by flushing and scraping. The monocytes were divided into smaller portions and further grown for four days. 0.9×10^5 cells per well were grown in 96 well tissue culture plates for TNF CBA use.
Subsequently, the macrophages were activated in RMPI 1640 containing 5% FCS, 1 ug/ml lipopolysaccaride (LPS) (Sigma-Aldrich, Brøndby, Denmark) and 20 ng/ml INF-gamma (Genscript Corporation, New Jersey, USA) for 18 hours making them pro-inflammatory.
The pro-inflammatory macrophages were stimulated with RMPI160, 5% FCS, 1 ug/ml LPS and 20 ng/ml INF-gamma containing either dexamethasone, Ab-dexamethasone or no drug.
To detect the change in soluble TNF-alpha concentration we used the Cytometry Bead Array Kit (BD Biosciences, New Jersey, USA). The media from the in vitro stimulated macrophages (described earlier) grown in 96 well tissue culture plates were analyzed according to the manufacturer's protocol.

mouse CD163 1-5 wt = target: T1, mouse CD163 1-5 wt (Mus musculus, UniProt Q2VLH6); assay: Western blotting of mouse CD163 and knock in mutant; type: binding
T1 construct: CD163 domain 1-5 was used for expression of mouse CD163 domain 1-5/V5/His; made in house; host or cells: Lenti-X 293T, transient; captured from supernatant on Ni-NTA
Experimental: The mouse CD163 1-5 and the mouse CD163 domain 1 mutant were expressed transient in Lenti-X 293T cells as follows: 1.5 μg of the DNA was diluted in OptiCHOPro SFM (8 mM L-glutamine) to a total volume of 50 μl The DNA was gently mixed with 50 μl of OptiCHOPro SFM containing 1.5 μl Freestyle MAX transfection reagent (Invitrogen, Taastrup, Denmark). After 10 min of incubation at room temperature the complexes were added to 1×10^6 cells in 1 ml. Three days later, the cell supernatants were harvested by centrifugation.
Tris pH 8 buffer, and cell culture supernatants were added 60 μl of Ni-NTA His-bind resin slurry. After 1 hour shaking at 4° C. the supernatants were aspired and each of the purifications were eluted with 90 μl 50 mM Tris pH 8, 25 mM EDTA buffer.
90 μl of each of the eluates were added 30 μl of 4×LDS sample buffer. 20 μl samples of each supernatant and 8 μl SeeBlue plus2 prestained marker were loaded on NuPage 4-12% Bis-Tris-Gels (Invitrogen, Taastrup, Denmark) and the SDS-PAGEs were run with MOPS running buffer according to instructions of the manufacturer (200 V constant for 50 min). Blotting to PVDF membranes (Invitrogen, Taastrup, Denmark) was done on an iBLOT device according to instructions of the manufacturer. After blotting the membranes were washed briefly in 1×PBS 0.1% Tween and blocked for 30 min in 1×PBS 2% Tween at room temperature with shaking. […]

[2] = target: T2, CD163 on peripheral blood monocytes (Homo sapiens, UniProt Q86VB7); assay: Quantitative flow cytometry of monocyte surface CD163 expression using different anti-CD163 mAb clones; type: cell-based
T2 construct: Freshly drawn peripheral whole blood samples or PBMC; endogenous in cells; host or cells: human peripheral blood monocytes, blood dendritic cells, monocyte-derived macrophages (healthy donors, buffy coats)
Experimental: EDTA, citrate, and heparin stabilized peripheral blood samples were obtained by standard venipuncture from healthy donors in Venoject® vacutainers (Terumo Europe NV, Leuven, Belgium). Peripheral blood mononuclear cells (PBMC) were isolated from leukocyte-rich buffy coats by gradient separation centrifugation using Accuspin System Histopaque®—1077 (Sigma-Aldrich Denmark A/S, Broendby, Denmark). Buffy coats were prepared from units of whole blood (approximately 472 ml) anti-coagulated with CPD-A (Baxter, Munich, Germany) donated by healthy volunteers. Approval for the study was obtained from the regional ethical committee (j.nr. 20040068).
Freshly drawn peripheral whole blood samples or PBMC (approx. 3×10^6 cells) were stained with isotype-matched control antibody or a relevant antibody for one hour at 4° C. in the dark. When staining whole blood, erythrocytes were lysed for 15 min with 4° C. cold solution of ammonium chloride. When indirect immunofluoresence staining was required, cells were initially incubated with unconjugated primary CD163 antibody for one hour at 4° C., washed three times with D-PBS, pH 7.4, followed by incubation with goat anti-mouse-conjugated Alexa-Fluor® 488 (1:200 dilution; Molecular Probes, Invitrogen, Carlsbad, Calif., USA) for one hour at 4° C. in the dark. The stained cells were washed twice three D-PBS, pH 7.4, re-suspended in 400 μl FACSflow (Becton Dickinson, San Jose, Calif., USA), and kept on ice until analysis. All samples were analyzed using a FACSCalibur flow cytometer and compensated for spectral overlap using FlowJo for Macintosh software version 8.3 (TreeStar, San Carlos, Calif.). For CD163 density quantitation, flow cytometric estimation of antibodies bound/cell (ABCs) was performed using Quantibrite PE beads (Becton Dickinson, San Jose, Calif., USA) as recommended by the manufacturer. After the cells were stained, as detailed, a set of 4 pre-calibrated fluorescently labeled beads was used for standardization before the samples were acquired. The Quantibrite PE beads were run at the same instrument settings as the assay, and the linear regression obtained using the Quantibrite PE beads was used to convert the FL2 linear fluorescence staining of cell population into the number of (CD163) PE molecules bound per cell (ABC).

[3] = PBMC isolated by density gradient centrifugation
[4] = Table 2, second column pair, head prints CITRATE
[5] = anticoagulant CITRATE, whole blood (Table 1, FIG. 2-3)
[6] = anticoagulant EDTA, whole blood (Table 1, FIG. 2-3)
[7] = anticoagulant HEPARIN, whole blood (Table 1, FIG. 2-3)
[8] = freshly drawn EDTA stabilized whole blood, FIG. 1

T2 sequence (Q86VB7 42-1156): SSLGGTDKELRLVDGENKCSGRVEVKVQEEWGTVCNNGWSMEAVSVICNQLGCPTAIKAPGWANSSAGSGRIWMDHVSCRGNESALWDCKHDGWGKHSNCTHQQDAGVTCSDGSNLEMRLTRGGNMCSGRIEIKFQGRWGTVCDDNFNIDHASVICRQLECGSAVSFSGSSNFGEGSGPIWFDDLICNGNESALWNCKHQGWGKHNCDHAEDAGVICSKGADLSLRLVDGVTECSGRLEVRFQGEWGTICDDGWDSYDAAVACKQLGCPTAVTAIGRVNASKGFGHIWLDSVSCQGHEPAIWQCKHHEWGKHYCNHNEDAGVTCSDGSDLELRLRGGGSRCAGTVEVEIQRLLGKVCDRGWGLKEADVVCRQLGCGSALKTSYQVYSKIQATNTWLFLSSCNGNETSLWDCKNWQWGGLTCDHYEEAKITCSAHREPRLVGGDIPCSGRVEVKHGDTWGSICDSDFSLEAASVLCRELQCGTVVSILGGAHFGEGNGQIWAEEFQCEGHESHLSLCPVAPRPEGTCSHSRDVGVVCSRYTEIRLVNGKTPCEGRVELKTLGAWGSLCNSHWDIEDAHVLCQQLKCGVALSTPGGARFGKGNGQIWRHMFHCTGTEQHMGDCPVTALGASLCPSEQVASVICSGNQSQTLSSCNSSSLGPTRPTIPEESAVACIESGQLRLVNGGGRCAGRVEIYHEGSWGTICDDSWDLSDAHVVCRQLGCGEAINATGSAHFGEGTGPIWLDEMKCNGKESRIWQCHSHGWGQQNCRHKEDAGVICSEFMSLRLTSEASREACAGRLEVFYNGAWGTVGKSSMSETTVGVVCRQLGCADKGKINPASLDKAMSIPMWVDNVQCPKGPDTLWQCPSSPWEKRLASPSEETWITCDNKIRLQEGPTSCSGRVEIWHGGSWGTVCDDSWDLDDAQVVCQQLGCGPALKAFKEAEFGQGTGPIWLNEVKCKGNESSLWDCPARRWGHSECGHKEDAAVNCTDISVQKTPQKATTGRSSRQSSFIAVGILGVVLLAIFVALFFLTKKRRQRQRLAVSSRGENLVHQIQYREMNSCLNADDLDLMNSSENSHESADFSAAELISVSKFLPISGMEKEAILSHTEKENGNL
T1 sequence (Q2VLH6 with tags, fused parts or gaps): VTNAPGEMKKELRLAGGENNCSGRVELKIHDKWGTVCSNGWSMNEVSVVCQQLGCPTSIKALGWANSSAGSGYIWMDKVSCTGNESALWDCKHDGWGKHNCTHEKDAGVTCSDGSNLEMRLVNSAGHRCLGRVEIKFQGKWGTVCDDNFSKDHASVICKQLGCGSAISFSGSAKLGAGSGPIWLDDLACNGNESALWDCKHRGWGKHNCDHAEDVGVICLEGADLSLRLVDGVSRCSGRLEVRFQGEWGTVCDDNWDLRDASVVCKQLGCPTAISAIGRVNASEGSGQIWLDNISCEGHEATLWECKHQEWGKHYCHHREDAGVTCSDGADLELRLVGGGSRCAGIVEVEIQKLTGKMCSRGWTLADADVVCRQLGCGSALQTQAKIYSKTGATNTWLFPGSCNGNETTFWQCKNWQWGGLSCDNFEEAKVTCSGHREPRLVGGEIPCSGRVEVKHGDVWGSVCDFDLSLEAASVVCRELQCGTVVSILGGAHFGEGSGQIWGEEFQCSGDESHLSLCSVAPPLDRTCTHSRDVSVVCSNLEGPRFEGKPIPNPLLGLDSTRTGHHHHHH

B1: MAC2-158: anti-human CD163 murine mAb, binds SRCR domain 1, IQ Products; VH SEQ ID NO: 1, VL SEQ ID NO: 2 (antibody, V domains shown)
VH: DVQLQESGPGLVKPSQSLSLTCTVTGYSITSDYAWNWIRQFPGNKLEWMGYITYSGITNYNPSLKSQISITRDTSKNQFFLQLNSVTTEDTATYYCVSGTYYFDYWGQGTTLTVSS
VL: SVVMTQTPKSLLISIGDRVTITCKASQSVSSDVAWFQQKPGQSPKPLIYYASNRYTGVPDRFTGSGYGTDFTFTISSVQAEDLAVYFCGQDYTSPRTFGGGTKLEIKRA
modifications: Mac2-158 VH; Mac2-158 VL
In the case of B1, the “effect on TNF production of macrophages” value [1] is reported as “no effect different from buffer”, the “binding in western blot” value (mouse CD163 1-5 wt) is reported as “did not bind” and the “density of CD163 receptors per monocyte” value [2, 3] is reported as 11,417. For the same molecule, the “fraction of CD14+ monocytes stained for CD163” value [2, 3] was 81.10%, the “% CD163+ monocytes” value ([2]; Table 2, first column pair, head prints EDTA) was 84.48% and the “% CD163+ monocytes” value [2, 4] was 87.23%. The CD163 density on monocytes [2, 4] was 17700 receptors/monocyte, the “% CD163+ monocytes” value ([2]; Table 2, third column pair, head prints HEPARIN) was 83.97% and the “% CD163+ monocytes” value [2, 5] was 83.97% and 81.97%. For the same molecule, the “CD163 density on monocytes” value [2, 5] was 17.726, the “% CD163+ monocytes” value [2, 6] was 87.23% and 82.23% and the “CD163 density on monocytes” value [2, 6] was 17.725. For the same molecule, the “% CD163+ monocytes” value [2, 7] was 84.43%, the CD163 density monocytes [2, 7] was 28.029 and the “density of CD163 receptors per monocyte” value [2, 8] was 17,725. For the same molecule, the “fraction of peripheral blood monocytes (CD14+) recognized” value [2, 8] was 84.06% and the “proportion of circulating CD163 expressing monocytes identified” value ([2]; summary statement) was > 80%.
